The record followed here is paper PMC10109501 (PLOS Pathogens, 2023).

The assay has as its target SARS-CoV-2 original 2019-CoV Spike, prefusion trimeric ectodomain (2P, GSAS, T4 foldon) (SARS-CoV-2, UniProt P0DTC2 14-1213). In words: BLI. As to conditions: both partners purified.

B1: cat ACE2-Fc (residues 19-615, mouse IgG2a Fc fusion) (Fc fusion)
chain: STTEELAKTFLEKFNHEAEELSYQSSLASWNYNTNITDENVQKMNEAGAKWSAFYEEQSKLAKTYPLAEIHNTTVKRQLQALQQSGSSVLSADKSQRLNTILNAMSTIYSTGKACNPNNPQECLLLEPGLDDIMENSKDYNERLWAWEGWRAEVGKQLRPLYEEYVALKNEMARANNYEDYGDYWRGDYEEEWTDGYNYSRSQLIKDVEHTFTQIKPLYQHLHAYVRAKLMDTYPSRISPTGCLPAHLLGDMWGRFWTNLYPLTVPFGQKPNIDVTDAMVNQSWDARRIFKEAEKFFVSVGLPNMTQGFWENSMLTEPGDSRKVVCHPTAWDLGKGDFRIKMCTKVTMDDFLTAHHEMGHIQYDMAYAVQPFLLRNGANEGFHEAVGEIMSLSAATPNHLKTIGLLSPGFSEDSETEINFLLKQALTIVGTLPFTYMLEKWRWMVFKGEIPKEQWMQKWWEMKREIVGVVEPVPHDETYCDPASLFHVANDYSFIRYYTRTIYQFQFQEALCRIAKHEGPLHKCDISNSSEAGKKLLQMLTLGKSKPWTLALEHVVGEKKMNVTPLLKYFEPLFTWLKEQNRNSFVGWNTDWRPYAD
Consider B1, for which the binding result is “binds”.
